Laboratory results: patent US20250011363A1, “OPTIMIZED SHORTENED PEPTIDE THAT BINDS TO ACETYLCHOLINE RECEPTOR, AND USE THEREOF” (SKINMED CO., LTD., priority 2021, published 2025)

These substances were tested against acetylcholine receptor (Homo sapiens, UniProt P02708) (assay: SPR binding affinity (RU) of optimized 5mer/6mer/7mer peptides, Examples 6-7). Details: SPR, peptides tested at 10 μM; 6mer-1 Top sequence.
Summary of the method: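 Binding response (RU) to the human acetylcholine receptor was measured by SPR. Each 5mer or 6mer library peptide was applied at 10 μM, with sequences drawn from top and bottom amino-acid combinations.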

acetylcholine receptor, sequence (P02708 21-457): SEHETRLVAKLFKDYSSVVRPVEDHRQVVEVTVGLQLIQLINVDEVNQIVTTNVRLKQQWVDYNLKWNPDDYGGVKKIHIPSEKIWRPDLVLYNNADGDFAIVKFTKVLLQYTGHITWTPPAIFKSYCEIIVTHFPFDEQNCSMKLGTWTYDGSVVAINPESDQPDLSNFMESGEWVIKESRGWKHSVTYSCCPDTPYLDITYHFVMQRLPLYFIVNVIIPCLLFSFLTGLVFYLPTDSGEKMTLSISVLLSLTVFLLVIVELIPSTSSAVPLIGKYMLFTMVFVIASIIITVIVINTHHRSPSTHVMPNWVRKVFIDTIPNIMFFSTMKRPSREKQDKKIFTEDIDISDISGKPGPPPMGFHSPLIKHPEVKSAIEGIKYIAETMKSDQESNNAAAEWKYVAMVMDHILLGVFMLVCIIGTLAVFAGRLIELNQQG

Substance	Binding affinity [Ru]
6mer-1-417 (RKSVCK)	139
6mer-1-418 (RRQVRK)	123
6mer-1-419 (KRGFYR)	148
6mer-1-420 (KKGQYK)	148
6mer-1-421 (RKVLYR)	135
6mer-1-422 (KRVRQR)	154
6mer-1-423 (RRGYCK)	147
6mer-1-424 (RRRIYR)	135
6mer-1-425 (RKGVQK)	131
6mer-1-426 (KKGQYR)	131
6mer-1-427 (KRWVLR)	147
6mer-1-428 (KRVVLR)	139
6mer-1-429 (RRQRRK)	135
6mer-1-430 (KKQLQK)	144
6mer-1-431 (RRRFRR)	144
6mer-1-432 (RKGIQK)	139
6mer-1-433 (RKQQYR)	154
6mer-1-434 (KRWVCR)	137
6mer-1-435 (RKWRCK)	135
6mer-1-436 (KKLFYK)	148
6mer-1-437 (RKWFLK)	131
6mer-1-438 (RRGFQK)	142
6mer-1-439 (KRRQTK)	121

Substance	Binding affinity [Ru]
6mer-1-440 (KRVYSK)	153
6mer-1-441 (RRVYYR)	146
6mer-1-442 (RKLQYK)	131
6mer-1-443 (RKVLLK)	145
6mer-1-444 (KKWILK)	144
6mer-1-445 (KRVRLR)	145
6mer-1-446 (RRVIRR)	124
6mer-1-447 (RRRQQK)	146
6mer-1-448 (RKRFSR)	141
6mer-1-449 (KRGRCK)	135
6mer-1-450 (RKVVYK)	151
6mer-1-451 (RKVRLR)	153
6mer-1-452 (KRLYTR)	141
6mer-1-453 (KKWQQK)	154
6mer-1-454 (RKVLRR)	124
6mer-1-455 (RRVFYK)	126
6mer-1-456 (RRGQYR)	153
6mer-1-457 (RKLLCR)	121
6mer-1-459 (RRWVYK)	131
6mer-1-460 (RRGFYR)	148
6mer-1-461 (RRGYTR)	142
6mer-1-462 (RKQILK)	126
6mer-1-463 (KRSFRK)	153

Substance	Binding affinity [Ru]
6mer-1-464 (RRQRLK)	131
6mer-1-465 (RKQVYK)	154
6mer-1-466 (KRSICR)	148
6mer-1-467 (KRGYQK)	121
6mer-1-468 (RRLYRR)	153
6mer-1-469 (KKLIYR)	139
6mer-1-470 (KKWVYR)	148
6mer-1-471 (KKWRCK)	123
6mer-1-472 (KRQRCK)	142
6mer-1-473 (KKVLSK)	154
6mer-1-474 (KRLFSK)	121
6mer-1-475 (RKLQTK)	148
6mer-1-476 (KRRRQK)	154
6mer-1-477 (KRQQTK)	145
6mer-1-478 (RKVRYK)	139
6mer-1-479 (RRSLTR)	135
6mer-1-480 (KKQFYK)	121
6mer-1-481 (KRWRCK)	133
6mer-1-482 (RKQVRK)	133
6mer-1-483 (KRQVTK)	151
6mer-1-484 (KKLYLR)	154
6mer-1-485 (RRWYRR)	126
6mer-1-486 (KRQVRK)	151

Substance	Binding affinity [Ru]
6mer-1-487 (RKGRRK)	121
6mer-1-488 (KKWYSK)	135
6mer-1-489 (KKVITK)	148
6mer-1-490 (KKLFRR)	133
6mer-1-491 (RKLRLR)	137
6mer-1-492 (RRWRQK)	139
6mer-1-493 (KRGYLR)	131
6mer-1-494 (KKLFSR)	128
6mer-1-495 (RKGFQR)	126
6mer-1-496 (RRVYQR)	148
6mer-1-497 (KRRQLR)	133
6mer-1-498 (RKRQQK)	139
6mer-1-499 (RKLFYR)	149
6mer-1-500 (RKLQSK)	151
6mer-1-501 (KRVLYK)	154
6mer-1-502 (RKLFSR)	146
6mer-1-503 (KRRLCK)	151
6mer-1-504 (RRSITR)	122
6mer-1-505 (RRRFTR)	148
6mer-1-506 (RRRLSK)	151
6mer-1-507 (RRSQSK)	139
6mer-1-508 (RRQFSK)	135
6mer-1-509 (RKWLRK)	128

Substance	Binding affinity [Ru]
6mer-1-510 (KRRQSR)	122
6mer-1-511 (RKVYRR)	136
6mer-1-512 (RKWICK)	154
6mer-1-513 (RKQIRR)	154
6mer-1-514 (KKGRSK)	128
6mer-1-515 (RRGLSR)	139
6mer-1-516 (KKRFSR)	139
6mer-1-517 (KKGLCK)	139
6mer-1-518 (KRWVLK)	153
6mer-1-519 (KRRQCK)	147
6mer-1-520 (KRQIYK)	127
6mer-1-521 (RKVISR)	128
6mer-1-522 (RKRRLR)	126
6mer-1-523 (KRRRSK)	139
6mer-1-524 (KKGRQK)	148
6mer-1-525 (RRQLRR)	139
6mer-1-526 (KRGYTR)	148
6mer-1-527 (KKGIYR)	142
6mer-1-528 (KRSYTR)	139
6mer-1-529 (RRSLCK)	139
6mer-1-530 (KRLVSK)	137
6mer-1-531 (RKGQTK)	135
6mer-1-532 (KKSQLR)	121

Substance	Binding affinity [Ru]
6mer-1-533 (RKWFSR)	145
6mer-1-534 (KKRLCR)	126
6mer-1-535 (RRVILK)	139
6mer-1-536 (RRWFRK)	151
6mer-1-537 (RRGLCK)	154
6mer-1-538 (RRSQCK)	142
6mer-1-539 (KRGIRK)	148
6mer-1-540 (KRVQTR)	128
6mer-1-541 (RKWFTR)	136
6mer-1-542 (KRWFRR)	128
6mer-1-543 (RRSVCK)	145
6mer-1-544 (KRVICR)	149
6mer-1-545 (RRSYRK)	127
6mer-1-546 (RKLVQR)	123
6mer-1-547 (RKVQQR)	148
6mer-1-548 (RRVYSR)	123
6mer-1-549 (KKSYQR)	142
6mer-1-550 (RRLICR)	148
6mer-1-551 (KRGRLR)	142
6mer-1-552 (RKRYRK)	144
6mer-1-553 (RRGVRK)	128
6mer-1-554 (KRSVTR)	131
6mer-1-555 (KKWYLK)	128

Substance	Binding affinity [Ru]
6mer-1-556 (KKGFTK)	145
6mer-1-557 (KRQVQK)	128
6mer-1-558 (RRLIQR)	139
6mer-1-559 (RRRLTK)	139
6mer-1-560 (RRSFSK)	127
6mer-1-561 (RKVYLK)	131
6mer-1-562 (KRSYQR)	148
6mer-1-563 (RRSFTR)	139
6mer-1-564 (KRSITK)	139
6mer-1-565 (KRSIRR)	151
6mer-1-566 (KKSFCR)	148
6mer-1-567 (KKRVSR)	136
6mer-1-568 (KRWQQK)	147
6mer-1-569 (RRVITK)	148
6mer-1-570 (RKRLRK)	122
6mer-1-571 (RKLLCK)	154
6mer-1-572 (KRVLLK)	126
6mer-1-573 (KRVLLR)	126
6mer-1-574 (RKSYLR)	148
6mer-1-575 (KRWVRR)	148
6mer-1-576 (RKRQRR)	153
6mer-1-577 (KKQYQR)	128
